We go through 7 molecules from US20110256180A1 (CHILDREN S HOSPITAL AND RESEARCH CENTER AT OAKLAND, published 2011).

Read-outs that look alike come from different tables or passages of the source.

For test [1], the target named is fHbp ID 1 on live bacteria of N. meningitidis group B strain H44/76 (Neisseria meningitidis) (UniProt E6MV22). Put plainly: cell-based or functional assay.
Test [2] concerns the target fHbp ID 77, wild-type (strain 8047, variant group 2, modular group VI) (Neisseria meningitidis). Put plainly: ELISA.
Test [3] has as its target fHbp ID 22, wild-type (variant group 2, modular group III) (Neisseria meningitidis). The experiment in a line: ELISA. In general terms: An ELISA detects its analyte on a solid surface through an enzyme-linked reagent.
The target of test [4] is T1, mouse factor H (native fH of wild-type mice) (mouse, UniProt P06909 19-1234).
T1 construct: also called mouse fH
The experiment in a line: ELISA, fHbp on plate, mouse serum.

Test [5] concerns the target T2, human complement factor H (human, UniProt P08603 19-1231).
T2 construct: also called human fH; fH
The experiment in a line: ELISA.

The target in test [6] is T2, human complement factor H. Put plainly: ELISA, vs respective wildtype fHbp.
For test [7], the target named is T2, human complement factor H. The experiment in a line: ELISA, vs respective wildtype fHbp. This is another data set of the same source.

T2 sequence (P08603 19-1231 limits assumed): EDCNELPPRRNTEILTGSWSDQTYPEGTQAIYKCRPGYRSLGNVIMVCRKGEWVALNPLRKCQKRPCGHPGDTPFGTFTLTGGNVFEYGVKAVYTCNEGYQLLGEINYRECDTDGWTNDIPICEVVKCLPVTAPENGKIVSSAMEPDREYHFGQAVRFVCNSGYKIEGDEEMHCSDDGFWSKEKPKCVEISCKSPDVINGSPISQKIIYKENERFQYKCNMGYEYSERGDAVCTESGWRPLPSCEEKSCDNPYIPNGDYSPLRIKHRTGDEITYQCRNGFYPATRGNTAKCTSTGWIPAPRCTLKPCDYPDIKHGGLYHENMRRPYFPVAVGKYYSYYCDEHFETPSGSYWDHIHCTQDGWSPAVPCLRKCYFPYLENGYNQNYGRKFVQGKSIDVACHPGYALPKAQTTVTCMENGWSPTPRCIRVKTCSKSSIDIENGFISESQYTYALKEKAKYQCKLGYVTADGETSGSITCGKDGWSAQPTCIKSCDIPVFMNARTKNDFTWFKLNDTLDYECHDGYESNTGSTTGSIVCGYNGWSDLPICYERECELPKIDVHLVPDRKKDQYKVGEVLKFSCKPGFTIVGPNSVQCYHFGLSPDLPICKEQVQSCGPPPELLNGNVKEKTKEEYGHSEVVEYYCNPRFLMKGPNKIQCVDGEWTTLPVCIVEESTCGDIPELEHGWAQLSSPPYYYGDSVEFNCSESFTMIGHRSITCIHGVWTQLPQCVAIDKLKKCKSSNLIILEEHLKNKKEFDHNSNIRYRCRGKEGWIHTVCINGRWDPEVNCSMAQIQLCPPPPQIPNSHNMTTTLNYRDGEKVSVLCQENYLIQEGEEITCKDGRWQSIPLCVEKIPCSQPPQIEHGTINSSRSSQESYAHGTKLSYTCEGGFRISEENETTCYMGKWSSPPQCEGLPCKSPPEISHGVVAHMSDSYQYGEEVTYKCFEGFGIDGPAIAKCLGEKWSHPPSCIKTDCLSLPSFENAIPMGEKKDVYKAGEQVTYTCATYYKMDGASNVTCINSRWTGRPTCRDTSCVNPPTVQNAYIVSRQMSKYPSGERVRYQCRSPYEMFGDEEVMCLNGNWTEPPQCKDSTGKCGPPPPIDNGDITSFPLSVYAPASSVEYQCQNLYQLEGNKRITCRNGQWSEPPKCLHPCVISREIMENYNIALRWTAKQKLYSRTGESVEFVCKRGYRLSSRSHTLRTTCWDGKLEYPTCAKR
T1 sequence (P06909 19-1234): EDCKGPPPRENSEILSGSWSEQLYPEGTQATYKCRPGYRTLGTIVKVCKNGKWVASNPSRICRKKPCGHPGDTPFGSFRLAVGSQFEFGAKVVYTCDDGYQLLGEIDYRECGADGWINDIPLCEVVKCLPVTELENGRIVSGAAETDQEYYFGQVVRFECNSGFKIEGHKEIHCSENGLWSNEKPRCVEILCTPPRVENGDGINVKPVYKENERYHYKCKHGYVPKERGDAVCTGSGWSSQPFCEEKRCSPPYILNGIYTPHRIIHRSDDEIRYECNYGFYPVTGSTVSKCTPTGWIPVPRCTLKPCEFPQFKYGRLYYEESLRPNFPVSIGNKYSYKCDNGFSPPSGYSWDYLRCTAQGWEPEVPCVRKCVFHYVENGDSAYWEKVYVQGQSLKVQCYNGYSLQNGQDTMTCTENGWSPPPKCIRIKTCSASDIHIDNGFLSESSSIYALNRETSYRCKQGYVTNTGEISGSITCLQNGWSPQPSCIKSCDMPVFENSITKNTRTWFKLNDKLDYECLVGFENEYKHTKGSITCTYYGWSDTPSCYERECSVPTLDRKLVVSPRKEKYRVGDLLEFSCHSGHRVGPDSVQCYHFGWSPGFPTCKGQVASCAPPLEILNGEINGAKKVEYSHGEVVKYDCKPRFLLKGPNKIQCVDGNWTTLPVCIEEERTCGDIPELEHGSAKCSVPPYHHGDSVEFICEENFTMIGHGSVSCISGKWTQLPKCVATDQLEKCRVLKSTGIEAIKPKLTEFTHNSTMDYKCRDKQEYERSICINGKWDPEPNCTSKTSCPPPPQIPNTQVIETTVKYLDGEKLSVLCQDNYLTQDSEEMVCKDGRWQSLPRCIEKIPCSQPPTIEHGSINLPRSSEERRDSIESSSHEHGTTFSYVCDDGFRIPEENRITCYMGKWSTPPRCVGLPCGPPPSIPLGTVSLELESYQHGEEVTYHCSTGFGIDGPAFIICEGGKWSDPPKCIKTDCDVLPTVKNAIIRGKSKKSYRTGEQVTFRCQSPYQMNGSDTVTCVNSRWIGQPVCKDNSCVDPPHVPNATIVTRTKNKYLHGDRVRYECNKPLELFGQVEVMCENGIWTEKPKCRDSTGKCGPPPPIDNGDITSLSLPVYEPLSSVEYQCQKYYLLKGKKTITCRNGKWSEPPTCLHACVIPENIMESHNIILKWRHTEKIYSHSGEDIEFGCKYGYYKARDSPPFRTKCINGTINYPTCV

In the case of “human IgG1 mouse chimeric anti-fHbp mAb502 (from UniProt P01857 1-330; P01834 1-107) (antibody)”, in test [1], the Bactericidal Activity (BC50%), fH-depleted complement, mean is 1.25 µg/mL and the Bactericidal Activity (BC50%), fH-repleted complement, mean was > 100 µg/mL.
Take “anti-fHbp monoclonal antibody JAR 4 (murine)”: the percent less binding than to variant 1 fHbp (ID 1) in test [2] and in test [3] was 30% throughout.
In the case of “human IgG1 mouse chimeric anti-fHbp mAb JAR 5 (from UniProt P01857 1-330; P01834 1-107) (antibody)”, in test [1], the Bactericidal Activity (BC50%), fH-depleted complement, mean is 1.25 µg/mL and the Bactericidal Activity (BC50%), fH-repleted complement, mean is 23.5 µg/mL.
As for “human IgG1 mouse chimeric anti-fHbp mAb JAR 3 (from UniProt P01857 1-330; P01834 1-107) (antibody)”, the Bactericidal Activity (BC50%), fH-repleted complement, mean in test [1] came out at 15.2 µg/mL.

B1: fHbp ID 1, wild-type recombinant factor H binding protein (strain MC58, variant 1, modular group I) (other)
chain: CSSGGGGVAADIGAGLADALTAPLDHKDKGLQSLTLDQSVRKNEKLKLAAQGAEKTYGNGDSLNTGKLKNDKVSRFDFIRQIEVDGQLITLESGEFQVYKQSHSALTAFQTEQIQDSEHSGKMVAKRQFRIGDIAGEHTSFDKLPEGGRATYRGTAFGSDDAGGKLTYTIDFAAKQGNGKIEHLKSPELNVDLAAADIKPDGKRHAVISGSVLYNQAEKGSYSLGIFGGKAQEVAGSAEVKTVNGIRHIGLAAKQ
notes: also called WT fHbp ID 1; Pep1
Take B1: the binding result in test [4] is recorded as “no binding (tested: 1:100 dilution of serum)”.

B2: fHbp ID 28 K199A mutant (other)
chain: CSSGGGGSGGGGVAADIGTGLADALTAPLDHKDKGLKSLTLEDSIPQNGTLTLSAQGAEKTFKAGDKDNSLNTGKLKNDKISRFDFVQKIEVDGQTITLASGEFQIYKQNHSAVVALQIEKINNPDKTDSLINQRSFLVSGLGGEHTAFNQLPGGKAEYHGKAFSSDDPNGRLHYSIDFTKKQGYGRIEHLKTLEQNVELAAAELAADEKSHAVILGDTRYGSEEKGTYHLALFGDRAQEIAGSATVKIGEKVHEIGIAGKQ
As for B2, in test [5], the binding result is recorded as “binds”.

B3: fHbp ID 15, wild-type (natural chimera, modular group IV) (other)
chain: CSSGGGGSGGGGVAADIGAGLADALTAPLDHKDKGLKSLTLEDSISQNGTLTLSAQGAERTFKAGDKDNSLNTGKLKNDKISRFDFIRQIEVDGQLITLESGEFQVYKQSHSALTALQTEQVQDSEHSGKMVAKRQFRIGDIVGEHTSFGKLPKDVMATYRGTAFGSDDAGGKLTYTIDFAAKQGHGKIEHLKSPELNVDLAAADIKPDEKHHAVISGSVLYNQAEKGSYSLGIFGGQAQEVAGSAEVETANGIRHIGLAAKQ
notes: Recombinant; also called Pep 15 WT; peptide 15
Turning to B3, the “Fold-Decrease in fH binding” value in test [6] and in test [7] was 0 fold each time.
